# Reference: patent US20210393690A1 (JUNO THERAPEUTICS, published 2021)
# Where two headings read alike, the source gives them in different places.
# T1: human BCMA peptide 30SNTPPLTCQR39 (human)
# T1 construct: Peptide of the CLIPS array; could be recognized in a linear form
# T1 peptide: SNTPPLTCQR
# T2: human BCMA amino acid residues 1-54 (linear and conformational CLIPS peptide libraries) (human)
# T2 construct: Not one polypeptide in the assay: arrays of linear peptides and structural mimetics that cover residues 1-54
# T2 chain: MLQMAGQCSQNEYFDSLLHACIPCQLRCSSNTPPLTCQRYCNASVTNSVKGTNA
# T3: recombinant human BCMA-hFc (soluble human BCMA fused at its C-terminus to an Fc region of IgG) (human, UniProt Q02223 1-54, limits assumed, biotinylated in the KinExA experiment of p-1044 (site not stated))
# T3 construct: also called rhBCMA hFc; BCMA-Fc; not shown: Fc region of IgG (hFc)
# T3 sequence (looked up): T2 chain
# B1: BCMA-23 anti-BCMA scFv (scFv)
# scFv: EVQLVESGGGLVKPGGSLRLSCAASGFTFSDYYMSWIRQAPGKGLEWVSYISSSGSTIYYADSVKGRFTISRDNAKNSLYLQMNSLRAEDTAVYYCAKVDGDYTEDYWGQGTLVTVSSGGGGSGGGGSGGGGSQSALTQPASVSGSPGQSITISCTGSSSDVGKYNLVSWYQQPPGKAPKLIIYDVNKRPSGVSNRFSGSKSGNTATLTISGLQGDDEADYYCSSYGGSRSYVFGTGTKVTVL
# B2: BCMA-26 anti-BCMA scFv (scFv)
# scFv: EVQLVESGGGLVKPGGSLRLSCAASGFTFSDYYMSWIRQAPGKGLEWVSYISSSGSTIYYADSVKGRFTISRDNAKNSLYLQMNSLRAEDTAVYYCAKVDGPPSFDIWGQGTMVTVSSGGGGSGGGGSGGGGSSYVLTQPPSVSVAPGQTARITCGANNIGSKSVHWYQQKPGQAPMLVVYDDDDRPSGIPERFSGSNSGNTATLTISGVEAGDEADYFCHLWDRSRDHYVFGTGTKLTVL
# B3: BCMA-55-scFv-mFc (Fc fusion, not shown: a dimerising Fc or GST)
# chain: QSALTQPASVSASPGQSIAISCTGTSSDVGWYQQHPGKAPKLMIYEDSKRPSGVSNRFSGSKSGNTASLTISGLQAEDEADYYCSSNTRSSTLVFGGGTKLTVLGSRGGGGSGGGGSGGGGSLEMAEVQLVQSGAEMKKPGASLKLSCKASGYTFIDYYVYWMRQAPGQGLESMGWINPNSGGTNYAQKFQGRVTMTRDTSISTAYMELSRLRSDDTAMYYCARSQRDGYMDYWGQGTLVTVSS
# B4: BCMA-55 scFv-Fc fusion protein (Fc fusion)
# chain: B3 chain
# notes: Fc fusion protein containing the scFv portion of the BCMA-55 CAR; also called BCMA-55-Fc; not shown: Fc region
# B5: BCMA-25 anti-BCMA scFv (scFv)
# scFv: EVQLVQSGGGLVQPGRSLRLSCTASGFTFGDYAMSWFRQAPGKGLEWVGFIRSKAYGGTTEYAASVKGRFTISRDDSKSIAYLQMNSLKTEDTAVYYCAAWSAPTDYWGQGTLVTVSSGGGGSGGGGSGGGGSDIQMTQSPAFLSASVGDRVTVTCRASQGISNYLAWYQQKPGNAPRLLIYSASTLQSGVPSRFRGTGYGTEFSLTIDSLQPEDFATYYCQQSYTSRQTFGPGTRLDIK
# B6: BCMA-55-LS-O/SSE CAR (other)
# chain: QSALTQPASVSASPGQSIAISCTGTSSDVGWYQQHPGKAPKLMIYEDSKRPSGVSNRFSGSKSGNTASLTISGLQAEDEADYYCSSNTRSSTLVFGGGTKLTVLGSRGGGGSGGGGSGGGGSLEMAEVQLVQSGAEMKKPGASLKLSCKASGYTFIDYYVYWMRQAPGQGLESMGWINPNSGGTNYAQKFQGRVTMTRDTSISTAYMELSRLRSDDTAMYYCARSQRDGYMDYWGQGTLVTVSSESKYGPPCPPCPAPPVAGPSVFLFPPKPKDTLMISRTPEVTCVVVDVSQEDPEVQFNWYVDGVEVHNAKTKPREEQFQSTYRVVSVLTVLHQDWLNGKEYKCKVSNKGLPSSIEKTISKAKGQPREPQVYTLPPSQEEMTKNQVSLTCLVKGFYPSDIAVEWESNGQPENNYKTTPPVLDSDGSFFLYSRLTVDKSRWQEGNVFSCSVMHEALHNHYTQKSLSLSLGKMFWVLVVVGGVLACYSLLVTVAFIIFWVKRGRKKLLYIFKQPFMRPVQTTQEEDGCSCRFPEEEEGGCELRVKFSRSADAPAYQQGQNQLYNELNLGRREEYDVLDKRRGRDPEMGGKPRRKNPQEGLYNELQKDKMAEAYSEIGMKGERRRGKGHDGLYQGLSTATKDTYDALHMQALPPR
# notes: Chimeric antigen receptor on the surface of Jurkat cells, Jurkat Nur77 reporter cells or primary T cells; also called BCMA-55-LS CAR; BCMA-55-L CAR
# B7: BCMA-52-scFv-mFc (Fc fusion, not shown: a dimerising Fc or GST)
# chain: SYELTQPPSASGTPGQRVTMSCSGTSSNIGSHSVNWYQQLPGTAPKLLIYTNNQRPSGVPDRFSGSKSGTSASLAISGLQSEDEADYYCAAWDGSLNGLVFGGGTKLTVLGSRGGGGSGGGGSGGGGSLEMAEVQLVQSGAEVKKPGESLKISCKGSGYSFTSYWIGWVRQMPGKGLEWMGIIYPGDSDTRYSPSFQGHVTISADKSISTAYLQWSSLKASDTAMYYCARYSGSFDNWGQGTLVTVSS
# How the values were obtained:
# [1] = molecular target: T1, human BCMA peptide 30SNTPPLTCQR39; test: CLIPS peptide array ELISA
# Method: (§1) Epitopes recognized, e.g., specifically bound to, by exemplary anti-BCMA scFv clones (BCMA-1, BCMA-5, BCMA-9, BCMA-23, BCMA-25, BCMA-26, BCMA-52 and BCMA-55 anti-BCMA scFvs), were assessed using full discontinuous epitope mapping by Chemical Linkage of Peptides onto Scaffolds (CLIPS; Pepscan Presto BV, Lelystad, The Netherlands; see, e.g., Timmerman et al., (2007) J. Mol. Recognit. 20: 283-329). Mapping was carried out using anti-BCMA scFv clones, such as those fused with mouse Fc (scFv-mFc).
# (§2) Linear and conformational peptide libraries of amino acid residues 1-54 of human BCMA (set forth as amino acid residues 1-54 of SEQ ID NO:164) were generated based on a combinatorial matrix design. Linear peptides and structural mimetics including single loop, α-helix, β-turn, combinatorial and linear disulfide bridge mimics, and discontinuous epitope mimics were used, along with positive and negative control peptides, on an amino-functionalized solid support.
# (§3) Affinities for binding to the peptides in the epitope library were determined using ELISA. The peptide arrays were incubated with a solution containing the scFv overnight at 4° C. Affinity information was used in iterative screens to define the sequence and conformation of epitopes. Heat maps of affinity information for two or more loops were generated.
# [2] = molecular target: T2, human BCMA amino acid residues 1-54 …; test: CLIPS peptide array ELISA
# Method: as §1, §2, §3
# [3] = molecular target: T3, recombinant human BCMA-hFc (soluble …); test: Biacore-based assay; scFv-Fc and recombinant human BCMA fusion protein; scFv-Fc fusion, Biacore-based assay
# [4] = molecular target: T3, recombinant human BCMA-hFc (soluble …); test: KinExA kinetic exclusion analysis; serially diluted CAR-expressing Jurkat cells equilibrated with 20 nM or 1 nM biotinylated rhBCMA hFc
# Method: In a further experiment, Jurkat cells were transduced with a polynucleotide encoding a CAR with a BCMA-55-derived scFv binding domain and were cultured to a density of ˜2×10⁶. The cells were harvested and spun at 1500 g for 15 minutes at 4° C. The cell pellet was washed and cells were resuspended and serially diluted in 20 nM or 1 nM biotinylated rhBCMA hFc (also referred to in this assay as the constant binding partner (CBP). After equilibration, cells were spun down and supernatants were harvested for KinExa kinetic exclusion analysis. Briefly, supernatants from equilibrated BCMA-55-LS CAR O/SSE-expressing Jurkat cells containing rhBCMA hFc were flowed over a streptavidin bead flow cell to capture free biotinylated rhBCMA hFc. The rhBCMA was then detected using a secondary anti-hBCMA antibody that was fluorescently labelled. The […] of the detected rhBCMA hFc was recorded for each sample, and plotted against the number of cells in each dilution (Darling (2004) Assay Drug. Dev., 2:647-657).
# [5] = molecular target: T4, cynoBCMA coated on 96-well flat-bottom plates (cynomolgus monkey); test: cell-based or functional assay
# T4 sequence (chain, as listed by the source): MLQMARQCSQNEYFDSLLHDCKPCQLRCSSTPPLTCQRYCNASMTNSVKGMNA
# [6] = molecular target: T3, recombinant human BCMA-hFc (soluble …); test: kinetics exclusion assay; CAR expressed in a Jurkat T cell line, soluble rhBCMA hFc; CAR on Jurkat cells, kinetics exclusion assay
# [7] = molecular target: T4, cynoBCMA coated on 96-well flat-bottom …; test: cell-based or functional assay; remark: listed apart in the source
# [8] = molecular target: T3, recombinant human BCMA-hFc (soluble …); test: cell-based or functional assay
binder,measurement,setting,value
B1,binding result,[1],binds
B2,binding result,[2],binds
B3,binding result,[2],binds
B4,Kd,[3],~10 nM
B5,binding result,[1],binds
B6,Kd,[4],~1.46 nM
same,EC50 (read off the curve),[5],~1 µg/mL
same,Kd,[6],~1 nM
same,EC50 (read off the curve),[7],~0.9 µg/mL
same,EC50 (read off the curve),[8],~0.2 µg/mL
B7,binding result,[2],binds
